We go through one molecule from PMC6748655 (Cell host & microbe, 2019).

Assay [1] has as its target HA on intact H3N2 A/Aichi/2/1968 (X31) virions (Influenza A virus H3N2 A/Aichi/2/1968 …, UniProt P03437, strain). As to the kind of experiment: ELISA. (ELISA stands for enzyme-linked immunosorbent assay.)
Assay [2] concerns the target representative H4 HA (Influenza A virus H4, strain not named …, UniProt M1UPL4, strain). In words: ELISA.

B1: FL-1066 IgG (human IgG1) (antibody, V domains shown)
VH: DVKLVESGEGLVKPGGSLKLSCAASGFTFSGYDMSWVRQTPEKRLEWVAYISSGGDYIYYADTVKGRFTISRDNARNTLYLQMSSLKSEDTAMYYCTRDSDYYGSRVWFAYWGQGTLVTVSG
VL: QAVVTQESALTTSPGETVTLTCRSSTGAVTTSNYANWVQEKPDHLFTGLIGGTNNRAPGVPARFSGSLIGDKAALTITGAQTEDEAIYFCALWFSNHWVFGGGTKLTVL
As for B1, the binding result in assay [1] and in assay [2] was “binds” each time.
